The test system of series [1] is isolated rat liver mitochondria. The series can be described thus: Hypoxic inhibition of respiration of isolated mitochondria. The series is classed as cell-based. Particulars: for inhibition of respiration, incubated alone (in words): nitrite 20 μM or protein 5 μM alone; for inhibition of respiration (cyanide = 100%): 5 μM protein with 20 μM nitrite, hypoxia. The protocol:
(§1) Mitochondria were isolated from the livers of male Sprague Dawley rats and incubated with wild-type or mutant Ngb proteins in a sealed, stirred chamber at 37° C. State 3 respiration was stimulated with succinate (15 mM) and ADP (1 mM) and oxygen consumption was measured with a Clark-type oxygen electrode. To measure inhibition of respiration in hypoxic conditions, respiring mitochondria were allowed to consume oxygen until the chamber became anoxic and then the chamber lid was removed to allow the diffusion of air back into the chamber. The rate of mitochondrial respiration was greater than the rate of oxygen entering the chamber such that the oxygen electrode trace remained at zero while the mitochondria were respiring. Nitrite was added to the chamber prior to the removal of the lid and deviation of the oxygen trace from a zero reading signified a decrease in respiration rate. All experiments were performed under conditions where substrates were not limiting. The extent of respiratory inhibition was quantified by measuring the time from equilibration of the mitochondria with air to the time when the oxygen trace deviated from zero. This time to inhibition was expressed as a percentage of maximal inhibition, where 100% inhibition was defined as the time to inhibition in the presence of cyanide and the time to the exhaustion of substrates was used as a measure of 0% inhibition. Similar experiments were performed with SHSY5Y cells suspended in the respirometer and treated with the uncoupler FCCP (5 μM) to measure hypoxic inhibition of cellular respiration.

A short description of series [2]: Anaerobic reaction of deoxygenated globins with excess nitrite (nitrite reductase kinetics, absorption / stopped-flow spectroscopy). The class given is biochemical. Particulars: for rate of nitrite reduction (in words): cysteine to alanine mutants; for relative percentage of the total absorbance change (Soret peak 425 nm) in the first 60 minutes: 1 mM nitrite, 0.1 M HEPES pH 7.4, H64L-Ngb normalized to 100%. The protocol:
Oxygen contamination was prevented by application of positive argon pressure without a channel for gas escape. Concentrations of single species during reactions were determined by least squares deconvolution of the visible absorption spectrum into standard reference spectra using Microsoft Excel analysis. OxyNgb was included to confirm successful deoxygenation before the reaction. […] Fast kinetic studies were performed using an Applied Photophysics DX-17 stopped-flow instrument equipped with rapid-scanning diode array detection. […] To determine bimolecular rate constants all reactions were analyzed with Pro-K software (Applied Photophysics) using singular value decomposition followed by fitting of the reduced data matrix to a pseudo-first order kinetic model.

For series [3] the following is noted: cited from earlier work.
For series [4] the following is noted: nitrite 7-230 μM; cited from earlier work.
Series [5] in a line: Determination of nitrite binding constants to met-Ngb (difference spectra titration). Particulars: met-Ngb 10 μM, 200 mM phosphate buffer, pH 7.4, 25° C.; read-out: Kd (NO2^−). The protocol:
To determine the binding constant of nitrite to metNgb, 10 μM wild type and mutant Ngb in 200 mM phosphate buffer, pH 7.4, were incubated in a cuvette at 25° C. with increasing concentrations of nitrite and the UV—visible spectra were recorded after each increase in nitrite concentration. The constant KD for each protein was determined by interpolation of the absorbance data following procedures in Nicolis et al. (Biochem J 407:89-99, 2007).

A short description of series [6]: Direct measurement of NO release in gas phase (chemiluminescence). The series is classed as biochemical. Conditions: 20 μM Ngb, 1 mM nitrite, anaerobic. The source says: Once a stable baseline was established Ngb was reacted with a known amount of nitrite as previously described (Huang et al., J Clin Invest 115:2099-2107, 2005).
The nature of series [7]: Reaction of met-Ngb with nitrite to produce nitrosyl-Ngb (nitrite ferric heme reduction). The class given is biochemical. Particulars: met-Ngb with nitrite in the presence of dithionite.
Series [8] in a line: EPR spectroscopy of iron-nitrosyl-heme formation from nitrite. The class given is biochemical. Particulars: 1 mM nitrite, 40±5 μM protein. How it is done: Iron nitrosyl species were measured by EPR spectroscopy using a Bruker EMX 10/12 spectrometer operating at 9.4 GHz, 5-G modulation, 10.1-milliwatt power, 327.68-ms time constant and 163.84-s scan over 600 G at 110 K as described previously (Basu et al., J Biol Chem 283:32590-32597, 2008; Azarov et al., J. Biol. Chem. 280:[…], 2005). The concentrations of Mb and Ngb species were determined by performing the double integral calculation and comparing to standard samples.

Series [9] can be described thus: Midpoint redox potential of the thiol/disulfide couple in Ngb (GSH/GSSG gradient, Nernst fit of kobs). The class given is physicochemical. Conditions: 37° C., 0.1 M phosphate buffer pH 7.0, GSH/GSSG. How it is done: Wild-type and C55A mutant Ngb (50-60 μM) were incubated at 37° C. in anaerobic glove box with solutions containing various ratios of reduced (GSH) and oxidized (GSSG) glutathione, with the total GSH and GSSG concentration fixed at 25 mM in 0.1 M phosphate buffer pH=7.0. The GSH/GSSG ratio was varied to establish a gradient of redox potentials between −130 and −250 mV, calculated by the Nernst equation according to a midpoint reduction potential of −240 mV (Yi et al., J Biol Chem 284:20556-20561, 2009). After at least 1 hour incubation, glutathione was removed by passage through a G25 column and Ngb was reacted immediately with 10 mM nitrite in 0.1 M phosphate buffer pH=7.0 as described above. The observed rate constant determined at each glutathione ratio was fitted using the Nernst equation and the midpoint reduction potential of the thiol/disulfide couple of Ngb calculated.

A further series relates to SHSY5Y cells. The series can be described thus: Hypoxic inhibition of cellular respiration in SHSY5Y cells expressing Ngb. The class given is cell-based. Particulars: cells stably transfected with GFP-tagged Ngb, nitrite added, FCCP. The protocol:
as §1, with “Similar experiments were performed with SHSY5Y cells suspended in the respirometer and treated with the uncoupler FCCP (5 μM) to measure hypoxic inhibition of cellular respiration.” left out

The conditions of series [10]: cited from earlier work. This is another data set of the same source.

As usually defined, the Kd is a measure of binding affinity in units of concentration.

Like-named read-outs stand apart in the source and are kept apart here.

As for `O=NO` [nitrite, reference compound], the “inhibition of respiration, incubated alone (in words)” value in series [1] was “No significant inhibition”.

B1: Myoglobin: horse heart myoglobin, purified by Sephadex G-25 gel filtration (protein, UniProt P68082 2-154, looked up)
Myoglobin: GLSDGEWQQVLNVWGKVEADIAGHGQEVLIRLFTGHPETLEKFDKFKHLKTEAEMKASEDLKKHGTVVLTALGGILKKKGHHEAELKPLAQSHATKHKIPIKYLEFISDAIIHVLHSKHPGDFGADAQGAMTKALELFRNDIAAKYKELGFQG
As to B1, the “BRC of myoglobin reaction with nitrite” value in [2] (100 mM phosphate buffer with EDTA, pH 7.4, 25° C.) was determined as 2.9 ± 0.2 M⁻¹ s⁻¹.

B2: neuroglobin: heme containing, monomeric, 16.9 kDa protein; literature values of the background section (protein, listed as Homo sapiens)
chain: MERPEPELIRQSWRAVSRSPLEHGTVLFARLFALEPDLLPLFQYNCRQFSSPEDCLSSPEFLDHIRKVMLVIDAAVTNVEDLSSLEEYLASLGRKHRAVGVKLSSFSTVGESLLYMLEKCLGPAFTPATRAAWSQLYGAVVQAMSRGWDGE
B2: the results for the “oxygen affinity P50” value in [3] (20° C.), in series [3] (after disulfide bond formation) and in [3] (before disulfide bond formation) were 1-2 mmHg, about 1 mmHg and “about 9 mmHg”, respectively.

B3: mouse neuroglobin: deoxy mouse neuroglobin of a cited study (Petersen et al., 2008) (protein, UniProt Q9ER97 1-151, looked up)
Neuroglobin: MERPESELIRQSWRVVSRSPLEHGTVLFARLFALEPSLLPLFQYNGRQFSSPEDCLSSPEFLDHIRKVMLVIDAAVTNVEDLSSLEEYLTSLGRKHRAVGVRLSSFSTVGESLLYMLEKCLGPDFTPATRTAWSRLYGAVVQAMSRGWDGE
As to B3, in [4], the “apparent second-order rate constant” value is 5.1 ± 0.4 M⁻¹ s⁻¹.

B4: C46A: recombinant human neuroglobin mutant with cysteine 46 replaced by alanine (protein, UniProt Q9NPG2 1-151, looked up, variant C46A)
Neuroglobin: MERPEPELIRQSWRAVSRSPLEHGTVLFARLFALEPDLLPLFQYNARQFSSPEDCLSSPEFLDHIRKVMLVIDAAVTNVEDLSSLEEYLASLGRKHRAVGVKLSSFSTVGESLLYMLEKCLGPAFTPATRAAWSQLYGAVVQAMSRGWDGE
Take B4: the “rate of nitrite reduction (in words)” value in series [2] is on record as “slowed down the rate of nitrite reduction to similar rates observed with Ngb having fully reduced cysteines”.

B5: C55A: recombinant human neuroglobin mutant with cysteine 55 replaced by alanine, six-coordinate (protein, UniProt Q9NPG2 1-151, looked up, variant C55A)
Neuroglobin: MERPEPELIRQSWRAVSRSPLEHGTVLFARLFALEPDLLPLFQYNCRQFSSPEDALSSPEFLDHIRKVMLVIDAAVTNVEDLSSLEEYLASLGRKHRAVGVKLSSFSTVGESLLYMLEKCLGPAFTPATRAAWSQLYGAVVQAMSRGWDGE
As to B5, in [1], the “inhibition of respiration (cyanide = 100%)” value is recorded as 62±4%. For the same molecule, in [5], the Kd was found to be 30.1 ± 4.5 mM. The “rate of NO detected in gas phase (in words)” value in series [6] was “significantly decreased”. In [7], the “BRC of nitrite ferric heme reduction” value worked out at 0.0002 ± 0.0005. In [2], the “relative percentage of the total absorbance change (Soret peak 425 nm) in the first 60 minutes” value was 18% and the “rate of nitrite reduction (in words)” value is listed as “slowed down the rate of nitrite reduction to similar rates observed with Ngb having fully reduced cysteines”.

B6: WT SH: wild-type human neuroglobin without disulfide bond, cysteines reduced by incubation with 10 mM DTT (protein, UniProt Q9NPG2 1-151, looked up)
Neuroglobin: MERPEPELIRQSWRAVSRSPLEHGTVLFARLFALEPDLLPLFQYNCRQFSSPEDCLSSPEFLDHIRKVMLVIDAAVTNVEDLSSLEEYLASLGRKHRAVGVKLSSFSTVGESLLYMLEKCLGPAFTPATRAAWSQLYGAVVQAMSRGWDGE
modifications: cysteines reduced with DTT
notes: wild-type human neuroglobin without disulfide bond, cysteines reduced by incubation with 10 mM DTT
B6: the Kd in series [5] is 12.6 ± 3.3 mM. In [7], the “BRC of nitrite ferric heme reduction” value is 0.0002 ± 0.0005. Further, the “rate of iron-nitrosyl-Ngb / NO formation by EPR (in words)” value in [8] is given as “slowed the rate of iron-nitrosyl-Ngb formation”. For the same molecule, the “relative percentage of the total absorbance change (Soret peak 425 nm) in the first 60 minutes” value in series [2] was determined as 20%. Besides, the “rate of nitrite reduction after reduction of the disulfide bond” value in [2] (cysteines reduced with 10 mM DTT, 25° C., pH 7.4) was 0.062 ± 0.005 M⁻¹ s⁻¹. Further, the “slowing of nitrite reduction rate by reduction of the disulfide bond” value in series [2] (relative to oxidized wild type, 25° C., pH 7.4) is “about 2 fold”.

B7: WT SS: recombinant wild-type human neuroglobin (SEQ ID NO: 8), as purified with the C46-C55 disulfide bond formed (protein, listed as Homo sapiens)
chain: MERPEPELIRQSWRAVSRSPLEHGTVLFARLFALEPDLLPLFQYNCRQFSSPEDCLSSPEFLDHIRKVMLVIDAAVTNVEDLSSLEEYLASLGRKHRAVGVKLSSFSTVGESLLYMLEKCLGPAFTPATRAAWSQLYGAVVQAMSRGWDGE
modifications: C46-C55 disulfide
As for B7, in series [1], the “inhibition of respiration (cyanide = 100%)” value was 78±6% and the “inhibition of respiration, incubated alone (in words)” value is listed as “No significant inhibition”. In addition, the “midpoint redox potential of the C46/C55 thiol/disulfide couple” value in [9] is reported as −194±3 mV. Further, the Kd in [5] was found to be 6.2 ± 2.1 mM. For the same molecule, the “extent of respiration inhibition compared to cyanide” value in the series on SHSY5Y cells was “about 15%”. Also, the “BRC of nitrite ferric heme reduction” value in series [7] amounted to 0.0005 ± 0.0005. Further, the “kon of NO for the ferrous Ngb heme” value in [10] was 10^8 M^−1 s^−1. Also, the “relative percentage of the total absorbance change (Soret peak 425 nm) in the first 60 minutes” value in [2] is 38%. Besides, the “calculated BRC in the presence of dithionite” value in [2] (10 mM nitrite, 10 μM deoxy-Ngb, 3 mM dithionite, pH 7.4, 100 mM phosphate buffer) was 0.11 ± 0.01 M⁻¹ s⁻¹. Further, the “second-order bimolecular rate constant from linear fit of kobs versus nitrite concentration” value in series [2] (nitrite 0.25-20 mM, 100 mM phosphate buffer, 25° C.) amounted to 0.12 ± 0.02 M⁻¹ s⁻¹. In series [2] (pH 6.5-8.0), the “acceleration of the reaction for each pH unit decrease” value was determined as 10 fold and the “slope of linear fit, order of rate dependence on [H^+]” value was 0.96. Further, the “instantaneous bimolecular rate constant (BRC) of reaction of nitrite with Ngb” value in series [2] (pH 7.4, 25° C., 10 μM deoxy-Ngb, 10 mM nitrite, no dithionite) was determined as 0.12 ± 0.02 M⁻¹ s⁻¹. Also, in series [2] (pH 7.4, 37° C.), the “instantaneous bimolecular rate constant (BRC) of reaction of nitrite with Ngb” value turned out to be 0.26 ± 0.02 M⁻¹ s⁻¹.

The record behind these values is patent US9114109B2, “Five-coordinate neuroglobin and use thereof as a blood substitute” (University of Pittsburgh—Of the Commonwealth System of …, priority 2009, dated 2015).
